Reference: patent publication US20210324028A1 (Pfizer, published 2021)
Where two headings read alike, the source gives them in different places.

T1: human IL-2Rβ (human, UniProt P14784 27-240, limits assumed)
T1 construct: also called hIL-2Rβ; IL-2 receptor beta
T1 sequence (looked up): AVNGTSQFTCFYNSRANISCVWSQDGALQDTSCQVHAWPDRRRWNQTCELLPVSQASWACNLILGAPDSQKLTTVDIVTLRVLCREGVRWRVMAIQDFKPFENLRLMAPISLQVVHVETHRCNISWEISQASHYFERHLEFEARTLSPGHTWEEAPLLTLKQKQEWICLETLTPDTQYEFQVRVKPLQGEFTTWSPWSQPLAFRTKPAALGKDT

T2: IL-15 signaling receptor on 32D[pRF770+pRF791] cells (human CD122 plus mouse CD132) (human; mouse, UniProt P14784 27-551; P34902 23-369)
T2 sequence (looked up) 1: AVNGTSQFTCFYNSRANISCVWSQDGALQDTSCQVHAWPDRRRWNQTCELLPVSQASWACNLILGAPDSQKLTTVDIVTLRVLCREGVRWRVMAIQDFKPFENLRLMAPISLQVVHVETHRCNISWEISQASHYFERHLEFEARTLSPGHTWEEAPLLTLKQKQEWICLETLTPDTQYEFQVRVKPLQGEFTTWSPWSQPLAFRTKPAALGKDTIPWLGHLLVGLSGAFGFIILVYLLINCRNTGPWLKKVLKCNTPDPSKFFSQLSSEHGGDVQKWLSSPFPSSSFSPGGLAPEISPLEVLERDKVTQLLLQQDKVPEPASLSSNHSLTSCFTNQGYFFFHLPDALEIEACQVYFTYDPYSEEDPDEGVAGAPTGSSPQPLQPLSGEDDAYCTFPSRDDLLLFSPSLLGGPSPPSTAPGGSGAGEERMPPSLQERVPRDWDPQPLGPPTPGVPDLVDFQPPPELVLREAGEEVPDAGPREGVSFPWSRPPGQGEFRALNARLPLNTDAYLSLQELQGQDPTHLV
T2 sequence (looked up) 2: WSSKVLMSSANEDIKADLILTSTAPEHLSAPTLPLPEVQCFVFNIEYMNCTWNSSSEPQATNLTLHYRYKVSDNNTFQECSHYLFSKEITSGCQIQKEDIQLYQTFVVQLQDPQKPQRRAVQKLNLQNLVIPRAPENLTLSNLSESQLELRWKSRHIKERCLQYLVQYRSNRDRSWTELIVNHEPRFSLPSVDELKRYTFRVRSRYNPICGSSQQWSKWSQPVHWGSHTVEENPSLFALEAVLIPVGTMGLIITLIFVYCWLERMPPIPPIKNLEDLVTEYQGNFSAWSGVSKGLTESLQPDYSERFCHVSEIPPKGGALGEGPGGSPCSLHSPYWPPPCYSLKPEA

T3: mouse PD-1 on doxycycline-induced 32D[pRF770+pRF791] cells (mouse, UniProt Q02242 25-288)
T3 sequence (looked up): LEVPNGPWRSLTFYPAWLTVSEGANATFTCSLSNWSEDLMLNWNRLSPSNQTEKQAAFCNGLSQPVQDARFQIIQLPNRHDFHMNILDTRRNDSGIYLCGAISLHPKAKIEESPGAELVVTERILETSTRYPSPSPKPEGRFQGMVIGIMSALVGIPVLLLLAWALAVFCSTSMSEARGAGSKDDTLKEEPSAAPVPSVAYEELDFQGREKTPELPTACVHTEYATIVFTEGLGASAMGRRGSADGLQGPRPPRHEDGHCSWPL


Tests used:
human IL-2Rβ [1] = target: T1, human IL-2Rβ; test: SPR, steady state, fusion captured
Procedure, shortened: (§1)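 Anti-PD-1–hIL-15 fusions captured at 10 μg/mL on an anti-human Fc surface, receptor injected at 37 °C in HEPES-buffered saline with 0.05% Tween-20 and 1 mg/mL BSA, pH 7.4; 5 min dissociation.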

human IL-15Rα = target: T4, human IL-15Rα (human, UniProt Q13261 31-205, limits assumed); test: SPR 37C, fusion captured by anti-human Fc
T4 construct: also called hIL-15Rα; IL-15 receptor alpha
T4 sequence (Q13261 31-205 limits assumed): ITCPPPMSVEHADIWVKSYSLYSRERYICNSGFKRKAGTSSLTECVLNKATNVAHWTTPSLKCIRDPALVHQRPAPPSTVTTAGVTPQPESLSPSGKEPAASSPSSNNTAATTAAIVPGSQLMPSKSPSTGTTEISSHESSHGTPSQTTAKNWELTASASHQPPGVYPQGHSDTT
Procedure, shortened: as §1

[2] = target: T2, IL-15 signaling receptor on …; test: cell-based or functional assay
[3] = target: T3, mouse PD-1 on doxycycline-induced …; test: cell-based or functional assay
[4] = target: T2, IL-15 signaling receptor on …; test: cell-based or functional assay; remark: listed apart in the source
[5] = target: T3, mouse PD-1 on doxycycline-induced …; test: cell-based or functional assay; remark: listed apart in the source
[6] = target: T3, mouse PD-1 on doxycycline-induced …; test: flow cytometry, Alexa647-labelled protein on doxycycline-induced 32D[pRF770+pRF791] cells (mouse PD-1 together with CD122 plus CD132), 4 C 30 min, % A647-positive cells
Protocol: The following cell lines were suspended in growth medium to 0.7*10\hat{ }6 cells/mL and, cultured for 16 hrs: 1) untransduced 32D (parental line); 2) 32D[pRF770+pRF791]; and 3) 32D[pRF770+pRF791] grown in the presence of 1 ug/mL doxycycline, to induce PD-1 expression. Cultures were then resuspended to a final concentration of 1.0*10\hat{ }6 cells/mL, and 0.1 mL of each suspension was plated into separate wells of a 96-well round-bottom plate, of sufficient number required for the experiment. Each Alexa647-labeled antibody or antibody-cytokine chimeric proteins were then added to a unique well to obtain a final concentration of 500 nM, 100 nM, […], 1 nM, 0.1 nM, 0.01 nM, or 0.001 nM in a given well. Plates were incubated at 4° C. for 30′, and then the cells were pelleted by centrifugation (300×g, 5′) and resuspended in 0.2 mL of PBS. This wash step was repeated twice. Upon final resuspension, the cells were analyzed on an LSRII flow cytometer. Data were analyzed using FlowJo version 10.

[7] = target: T2, IL-15 signaling receptor on …; test: cell-based or functional assay; remark: listed apart in the source
[8] = target: T3, mouse PD-1 on doxycycline-induced …; test: cell-based or functional assay; remark: listed apart in the source
[9] = target: T2, IL-15 signaling receptor on …; test: cell-based or functional assay; remark: listed apart in the source
[10] = target: T3, mouse PD-1 on doxycycline-induced …; test: cell-based or functional assay; remark: listed apart in the source
human IL-2Rβ [11] = target: T1, human IL-2Rβ; test: SPR, fusion captured
Procedure, shortened: as §1

Binder | Kd (human IL-2Rβ [1]) | binding result (human IL-15Rα) | pSTAT5 EC50 on PD-1(low) 32D reporter cells [2] | Fold change = EC50 (PD-1(low))/EC50 (PD-1+) [3] | pSTAT5 EC50 on PD-1+ 32D reporter cells [3] | pSTAT5 EC50 on PD-1(low) 32D reporter cells [4] | Fold change = EC50 (PD-1(low))/EC50 (PD-1+) [5] | pSTAT5 EC50 on PD-1+ 32D reporter cells [5] | EC50 (read off the curve) [6] | pSTAT5 EC50 on PD-1(low) 32D reporter cells [7] | Fold change = EC50 (PD-1(low))/EC50 (PD-1+) [8] | pSTAT5 EC50 on PD-1+ 32D reporter cells [8] | pSTAT5 EC50 on PD-1(low) 32D reporter cells [9] | Fold change = EC50 (PD-1(low))/EC50 (PD-1+) [10] | pSTAT5 EC50 on PD-1+ 32D reporter cells [10] | Kd (human IL-2Rβ [11])
xmPD-1-hIL15 NQ mutant (other, also called xmPD-1-IL15 NQ; xmPD1-IL15 NQ) heavy 1: HHHHHHHHGGGGSGSGGEVQLVESGGGLVKPGGSLELSCAASGFTFSSYWMSWVRQAPEKGLEWVAAISPSGGSTYYADSVKGRFTISRDNAKNTLFLQMTSLRSEDTAMYYCAKESWGAYYDLWGQGTTVTVSSASTKGPSVFPLAPCSRSTSESTAALGCLVKDYFPEPVTVSWNSGALTSGVHTFPAVLQSSGLYSLSSVVTVPSSNFGTQTYTCNVDHKPSNTKVDKTVERKCRVRCPRCPAPPVAGPSVFLFPPKPKDTLMISRTPEVTCVVVAVSHEDPEVQFNWYVDGVEVHNAKTKPREEQFNSTFRVVSVLTVVHQDWLNGKEYKCKVSNKGLPSSIEKTISKTKGQPREPQVYTLPPSREEMTKNQVSLTCLVKGFYPSDIAVEWESNGQPENNYKTTPPMLDSDGSFFLYSRLTVDKSRWQQGNVFSCSVMHEALHNHYTQKSLSLSPGK heavy 2: EVQLVESGGGLVKPGGSLELSCAASGFTFSSYWMSWVRQAPEKGLEWVAAISPSGGSTYYADSVKGRFTISRDNAKNTLFLQMTSLRSEDTAMYYCAKESWGAYYDLWGQGTTVTVSSASTKGPSVFPLAPCSRSTSESTAALGCLVKDYFPEPVTVSWNSGALTSGVHTFPAVLQSSGLYSLSSVVTVPSSNFGTQTYTCNVDHKPSNTKVDKTVERKCEVECPECPAPPVAGPSVFLFPPKPKDTLMISRTPEVTCVVVAVSHEDPEVQFNWYVDGVEVHNAKTKPREEQFNSTFRVVSVLTVVHQDWLNGKEYKCKVSNKGLPSSIEKTISKTKGQPREPQVYTLPPSREEMTKNQVSLTCEVKGFYPSDIAVEWESNGQPENNYKTTPPMLDSDGSFFLYSKLTVDKSRWQQGNVFSCSVMHEALHNHYTQKSLSLSPGSGGGGGTATATPGANWVNVISDLKKIEDLIQSMHINATLFTESDVHPSCKVTAMKCFLLQLQVISLQSGDASIHDTVENLIILANNSLSSNGNVTESGCKECQELEQKNIKEFLQSFVHIVQMFINT light: DIVMTQSPSSLSVSAGDKVTMSCRASQGISSWLAWYQQKPWQPPKLLIYKASTLESGVPDRFTGSGSGTDFTLTISSVQAEDLAVYYCQQSYSTPWTFGGGTKLEIKGTVAAPSVFIFPPSDEQLKSGTASVVCLLNNFYPREAKVQWKVDNALQSGNSQESVTEQDSKDSTYSLSSTLTLSKADYEKHKVYACEVTHQGLSSPVTKSFNRGEC | 518 nM | no binding (tested: 3000 nM) | 13.3 nM | 1230 fold | 10.9 pM | 21.1 nM | 223 fold | 90 pM | ~0.03 nM | 7.29 nM | 241 fold | 30.3 pM | 1.72 nM | 300 fold | 5.74 pM | 
xmPD-1-hIL15 V49R/Y26K/E64Q/D30N (other, not restated for this mutant; also called xmPD1 -V49R/Y26K/E64Q/D30N) heavy 1: HHHHHHHHGGGGSGSGGEVQLVESGGGLVKPGGSLELSCAASGFTFSSYWMSWVRQAPEKGLEWVAAISPSGGSTYYADSVKGRFTISRDNAKNTLFLQMTSLRSEDTAMYYCAKESWGAYYDLWGQGTTVTVSSASTKGPSVFPLAPCSRSTSESTAALGCLVKDYFPEPVTVSWNSGALTSGVHTFPAVLQSSGLYSLSSVVTVPSSNFGTQTYTCNVDHKPSNTKVDKTVERKCRVRCPRCPAPPVAGPSVFLFPPKPKDTLMISRTPEVTCVVVAVSHEDPEVQFNWYVDGVEVHNAKTKPREEQFNSTFRVVSVLTVVHQDWLNGKEYKCKVSNKGLPSSIEKTISKTKGQPREPQVYTLPPSREEMTKNQVSLTCLVKGFYPSDIAVEWESNGQPENNYKTTPPMLDSDGSFFLYSRLTVDKSRWQQGNVFSCSVMHEALHNHYTQKSLSLSPGK heavy 2: EVQLVESGGGLVKPGGSLELSCAASGFTFSSYWMSWVRQAPEKGLEWVAAISPSGGSTYYADSVKGRFTISRDNAKNTLFLQMTSLRSEDTAMYYCAKESWGAYYDLWGQGTTVTVSSASTKGPSVFPLAPCSRSTSESTAALGCLVKDYFPEPVTVSWNSGALTSGVHTFPAVLQSSGLYSLSSVVTVPSSNFGTQTYTCNVDHKPSNTKVDKTVERKCEVECPECPAPPVAGPSVFLFPPKPKDTLMISRTPEVTCVVVAVSHEDPEVQFNWYVDGVEVHNAKTKPREEQFNSTFRVVSVLTVVHQDWLNGKEYKCKVSNKGLPSSIEKTISKTKGQPREPQVYTLPPSREEMTKNQVSLTCEVKGFYPSDIAVEWESNGQPENNYKTTPPMLDSDGSFFLYSKLTVDKSRWQQGNVFSCSVMHEALHNHYTQKSLSLSPGSGGGGGTSATATPGANWVNVISDLKKIEDLIQSMHIDATLKTESNVHPSCKVTAMKCFLLELQRISLESGDASIHDTVQNLIILANNSLSSNGNVTESGCKECEELEEKNIKEFLQSFVHIVQMFINT light: DIVMTQSPSSLSVSAGDKVTMSCRASQGISSWLAWYQQKPWQPPKLLIYKASTLESGVPDRFTGSGSGTDFTLTISSVQAEDLAVYYCQQSYSTPWTFGGGTKLEIKGTVAAPSVFIFPPSDEQLKSGTASVVCLLNNFYPREAKVQWKVDNALQSGNSQESVTEQDSKDSTYSLSSTLTLSKADYEKHKVYACEVTHQGLSSPVTKSFNRGEC |  | no binding (tested: 3000 nM) |  |  |  |  |  |  |  | 21.4 nM | 382 fold | 56.1 pM |  |  |  | > 1500 nM
